Here are results for 47 sequences from the NTF2 design screens of Basanta et al. (2020).

A short description of this data set: protease stability score; higher = more stable; yeast display proteolysis, trypsin and chymotrypsin.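 Note: relative to predicted unfolded state with 0 unfolded-like and 1 meaning tenfold more protease.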
For the sequence “DNTEENTRTLLELLKRVWRTGDWSQLDKLLDPNARAEINGVELHGREKVVEVFREELERLGVEYTDSRVKDMKVQGDKAIIDLELETEQGDKTHMHDLHIETRKVDGRWFVEHIIVH”, the protease stability score amounted to 1.75.
In the case of “DPREIALKLLLQIMQELEETGDFREEEKYVDPHMRIKIDGVIYHGRSAIEHEYRRFDHIHEIELKRFHVQGDKITLEGYIRGNFDGKEHNTRSILLAKKVNGRWVLTEVTWL” it was 0.801.
In turn, “DQDDHMAKEFHKLFFDAIRTGDEDLLSMLLDPHVLMNIGNFHRHGRELVVDMQRHLYEKHGFRIHNAHVERWHIFENRLIYHLKVDGKVDGKRHVMEFDLTILKVDGVWIITSITIK” showed a protease stability score of 1.44.
In the case of “DQDEEIMRRLLKTILESWVTGDEDELRRRADPDARSDINGRKHHGRDRVVKRMHDWLRELGIDHLHIEHERIIGEKAHFDTRVHVNGKTFEMFLHFEIIDGRVRSMHVEIR”, the protease stability score was determined as 0.654.
For “DQEEHEFYNVLRLFMFTLMTGDEHTLKKLLDPNARIEINGQERHGREEILHHMNRNLHEIRMKTLEVKRESVYGNYAHADTRLRGEVNGRESIVTVHIYIQVINGRIEHVHLDIK” the value was 1.45; for “DQEEQDIRRAIRLYLELLLTGDWKTLEKLIDPNVRLNFNGQEYHGMRDVLRLLKEILEELGIKHVHLHDERIQGDKVKVDTRVEINGKHSEVILVAEKINGKWVVHHLEHNHK”, 1.24.
For “DQEERDSKHALRFMEHVISTGDEHLIEELLDPHARLDINGVDVHGREEVKRTITEHRKRYKNLRIHVTDLEVVNGVVRLHTELNIGDKRFEVRWFLDKIDGRWLMTEIRIR” the value was 1.12; for “DQEEREDRKILKLLVELWRTGNEEVLEHLLDPNVKMRLEFEGREDSAHGRESMIEMLRRVWKVLGIKHERLESVHVFDGVVIITMRLSVDGREQDIQLLFFVYDGRIKSIVIRVRDR”, 1.45.
In the case of “DQEERIAHKVAEFFLHALLTGDERLLTEYFDPHVRIIIHINGVEIRYHGREEWVEWLRDILRRFDVVRFHIRDIRNIGNKSIVHSEHREHVNGKSRSTRTELLIDVVDGRIHEVEIRIE” it was 1.44; in that of “DQEHEDARNVLHLLIRSWRTGDEHTSEHLMDPDVKIIYNGRVHVGREDAHRFVEEARVHHIVLHDSRVQGDYIRLDIRVEGEINGRRDRTEVDMVVLKINGRWMIQSIKFK”, 1.38.
“DQEHRDLHKLAHLILEYLVTGDFEMFEHLADPNVKVNINGKEMHGMERMREHLELIWKELRIHHLHITEVTIQGNKVEIDGRWDGKVNGQHRIEERHFYLVTVNGRIRHISEEIV” had a protease stability score of 1.37.
Sequence “DQHERELEHAMEMLEKILKTGDERLFEHYADPHIRLEIEINGRRIDDHGRDLVLHLWRKMGADHMNIRSIDIQGDKLILNSTIEFNGQIHRSRFISLKVNGRWFIESVRLQDT” displayed a protease stability score of 0.907.
For the sequence “DQKKELIKKVHEHLFEDLITGDEKKLLSLADPNMRSDINGREIHGMEETSRILLELNRHWGVDRVEVHEHDMKIQGDKAIIHGTLKFNGVETTVELVILKINGVWLLKEVHFR”, the protease stability score turned out to be 0.76.
Take “DQLDKSMKESMTRALEHWETGNERSLENLLDPNTKVVVNGVIVHGWERMSELIHDFWRRLGIDHVEIEDIHNHIQGDKAVLNNKTVINVNGQEIKTTLIIYITKVNGRWTIHSIEIHIH”: the protease stability score stood at 1.72.
In the case of “DQREETTNRALHEFIENLITGDEHELLRLLDPNTKMIWNGRENHGWKRAKTVLKEFLERIDVFKDHKLRNMELQGNKAEVEGQVIFEIDGKEVRHDLSLIFLKVDGKWMIESIEIR” it was 1.34; in that of “DQRERDQHIALEIWLLVLETGDERYVRRYADPRMRIEVGDKEIHGREDALEFRTEELRHMRLRDFRNKSFTVIDGRVDFYGHLLIEVDGRSQIFDSRLIILKVNGRWFLESEIRH”, 1.43.
In turn, “DRDDEMTERALKEHIKNFRTGDFDKLLELADPNVRVDIDGREIHGRENFVKLVLKLMDDLGMKPEDVWVEHVNVFNGKVHMRIVLVTFYGDKRHINDTNVIATKFDGRWILKDVTMV” registered a protease stability score of 1.08.
For “DRDEQMLRTYLHRMYESIRTGDEDSFKRLFDPNTRLHFENHHEHGWELLLRLMLRYANQADHFKLEIEDVTVQGDKAILRVHITVHVDGRDVSRSTVLYTTKVDGQWHFETVREK” the value was 1.48.
In the case of “DRDQHQAEKAFKLLVDILQTGDEEEIYKMADPHMQIDFDGRLHHGRDEFVKLVSETIRKFKNIRVEIHHIEVFDGRMHTDSRIHVGDKEWTIDIHIQKVNGKWKLKHVRVD” it was 0.945; in that of “DREEEDYRRAWEHLHKDWKTGNEEHMERNADPNVRVEINGVERVGRELFVELMRHLVRHIRIEHVHVERSDIVNGVIILDMIVTGRIGDKSEIERVEVHTLKIDGRWLLTEVRFK”, 0.663.
In the case of “DREEEELKRIMHLFINFVETGDWELILKLMDPNVKMQIDFNGKIFRNHGRDALEYTIRLMGIDHIEIHHQDVIDGKLHIDVTVHIDGQDLRVHIHVIVIDGRIREVRHRTH” it was 1.23; in that of “DREEEEVRRARKLWVDWAETGDEESIFKNADPRTRVDINGKILHGMEIYKKESEKLGIDNIEFRVDDVRVFDGRLEMDGELIVNGRSIRVHIYSRKIDGRWVLTSINFI”, 0.872.
Consider “DREEEHTRTLAKELFEIFLTGDFDRFSELADPNTRLRIIINGVEFRDHGMEFWQWWVDEIRIHSYRMRDMRVFNGQAILLSTSDVEFNGRRHETTVEFVLVIVNGRIKSVTIIVR”, for which the protease stability score is 1.69.
In the case of “DREEEKLLHAIKLLLHNWMTGDEDSEIDLMDPNARIVWNGVELHGMTEVRRFLHEYHRRFDVFTHTHIDHYRVIGDKAESHIRLEGSVDGRTIKHQTFILMSKYNGKWTNQTLTFE” it was 1.13; in that of “DREEHELLHAIERWLKAEETGDEHELKKLADPHTRTHIRIGDKHIERHGREDMIKVFRELGFKHHHMRSIEIQGDYVHVRGENRFDGQHITLILIFHKFDGRWILREVEVHIR”, 1.41; in that of “DREEKQAEEVATEIIRALLTGDEKWLLHLIDPNVRWIMDVNGKELTLHGWHELIKKFRDDFRHLGVERFHVHVKDWDIQGDKMHLRVTFHIDGKTFDYELIIIVINGRITSMEVREH”, 2.
For “DREELLMLFLKSWLTGDEHILKELLDPHVRMDVDGVEQHGRDVLLHLLHHLSRYMGVDHHRIERFEVQGDKIFINLRIHWNGVESELEIILFVIDGKIKEVEIRSRDEDHKRMVKESWR” the value was 1.19; for “DREENEIREFIEKLVDAHLTGNFELMDELADPNVRIEIGDKRYHGREEYLRLMHELRIHHVEIDHIEWYNGQVHMHGTVDGVVDGRRHRIHTEMTVEKVNGRWILTEERQL”, 1.69.
For “DREERDTREALRILHEISRTGDEELLDRQMDPDVKIDFENHEFHGREEASTLIHEIYQKWGLSNVEMDIKRVRTVGEKVDIDGRLHFNGVTRDIRLINLKVNGKWFIHSIIFR” the value was 1.2.
Sequence “DREHDELRKTWEIYSQALSTGDEDELNKLADPNTRLDIDGKELHGMEDVHRHLHHNLRRVDHIELRIHEIRYQGDFAHVDGEVIIVYDGVKKSRRVHLILTKINGRWILTSVEFR” had a protease stability score of 1.28.
“DREHREREELLNETNKAIATGDEETLRRLFDPNVQIEQGEYHHHGWEWVKKLMEEMRIEVEHVHDRRVDMFENHVRVDTHVHLRFIIGDKIFHVNLRQEIVMHKVNGVWIFKSFKYH” came in with a protease stability score of 1.4.
“DREKEFVKEFFTMLHNVLHTGDFKLFEKMLDPRYRVEIGDKEAHGREEVLRWFHEYMRIAGIDHIELHLHNFDYQGDKVRMDTIVILIQGDKTFHLDVRIVVKKIDGQWINQTERIH” showed a protease stability score of 1.42.
On to “DREKKEAEQLIRLINRYIQTGDEHSLSRLMDPHVLLQVGDKKDIGWEIIINKIKEMWEKFKGARFNLEMRDIHLQGDFAEIDVEFEILVNGQFDTLKTRFIIFKIDGRWVIRSLSLE”, for which the protease stability score stood at 2.33.
In the case of “DRERLADELRRRLEKVMTTGDPTELDKLMDPNARILYGDQKFHGREHVKEFAKTLNDQYDHVTIRLVSYDIKNGEIHIVVDVVFRHNGQTRTKRINFVARVHGDKVKIESINIP” it was 1.48; in that of “DRERRHEEQLYRDLIHAWFTGDEEWLRKYADPHVRVEIGDKLRHGMEWLAKMREDVHRHLGIDHIHIHDHYFFDGRVHMDFRINIGDKHHNLHLHIVNVDGKVRSFRFEIH”, 1.09.
For “DRHDKELERFTSDWLTSWHTGDFHRILELLDPDVRYIYGDKEWHGRENVHRAIKELLERLGIDHLHLQRVEIQGEKFKIQTQVHVGDKTINLIIHILVVDGRVREVNMDEK” the value was 1.33; for “DRHEELNKEIAEELVHWHRTGDWEEIQRNMDPNVRMEINGVENVGRETMAEILHEWLSRIKGLRVEIKHVEIIGDKVHIHGRININGRERNTHIDLHVVNGQMHELIIKVE”, 0.279; for “DRHEETDRRAVKILLEVIRTGDFETFYRLMDPHARYEYGEKELHGRDKSLKLLEELLRRFGHDKVEVHLKTYSAIDGRMEIHSVVNYNGREHNLHIESDKVNGRWEIRDIHVL”, 1.09.
For “DRHEKIALEMARIILELLYTGDEDTFKHLADPNVKLHLDINGRHFEHHGREEHEKWSRELERHMRITDIKIDDEKVQGDWVHIDSTIVMRIGDKSSIHKMHFIFQIVDGRIKNMEVVIK” the value was 1.38; for “DRHERKKVAKDFNEALETNDHEQLMEQMDPNARIKYGDKHYHGREDLRRFWKKLVDSVDHITVDKMQVRGEEVVVLAKAESNGRNETFRLVMEFHNGRIKFVRKDTP”, 1.05; for “DRIEEEFEFALRHLIHNWVTGDETRLQKLADPNVRTVFEGREHHGRESFTELVHEIRFHDFRLRDYKIQGNKIVVDGEFDVDINGVRRIIRVELEIIKINGRWYIHSISFL”, 0.203.
In the case of “DRIEELSEEALHILKEVVRTGDERLIEENMDPNTRLEIGDKEFHGRHYAERFARDLGIKHMTFHHYETIDGRVHIHGTLHFNGRTHHTQIVLLKVNGQWRIERIHID”, the protease stability score came to 0.669.
In turn, “DRLEELLRHVSSLFLHSVETGDFDILQKLADPHVRMEVDGKELHGREHMVQRILDEYHKFGFTQIDSRLEDVRVYGDKVEVDLEHHFDGKTYKYEIILRKVNGRWTLESVIVR” had a protease stability score of 1.22.
For “DRLEELVERIAEIFLESYLTGDWKHLFDYFDPHAKLNIDGQESVGRESIQLMLEIHFKRVDHIQHFHRDDHRIQGNKFVFIGTLEGHVNGRTTRSRVKVEVTAVDGRIEELHIHIE”, the protease stability score was 1.23.
In the case of “DRLHEMAREFSEEWSRAVKTGDEQLYSKLVDPNARFSIGEFDFHGRDEVSRIMKHWRIEDVHLSSVSVQGEKVEIRGHLHGDFDGRRQDVEVIIIVLKVNGRWFLRDLEFR” it was 1.31; in that of “DRQKEILRELMEMFLTIFETGDEERFWELADPHVRHVIDIGDKEIRRVGREEMLKVWEHLYREMRIHRITLKDVRLVNGVFHAHVKVDGEYNGQRRETEMDIELNVVNGRVKSLIIHIQ”, 1.89; in that of “DRREEHAVNVFEIMFVLLLTGDETLFDKLFDPHVLFIIGDKEYHGRERFSKEMLRWIEEWRIQEFKIKDVRVVGDKAEIDGRIRGRYGDKETEIELHLIVMKVDGRWLVHSIELV”, 1.09.
